± gives the standard deviation of the averaged measurements.
B1: library; a variant is named by its letters at N, in order (parent)
chain: GCUGUCACCGGUGUAUUACCCUAGUGGUCGACCGGUCUGAUGAGUCUNNNNNNAGACGAAACAGC

How the values were obtained:
[1] = variants of: B1; experiment: normalized RNA/DNA level with ligand (relative to sTRSVctl = 100) (log10 (% of sTRSVctl)); ligand: hypoxanthine (xanthine aptamer); higher = less ribozyme self-cleavage, higher mRNA level; settings: ligand concentration (+) RNA-Seq: 5 mM, HEK293T, reporter: mCherry (pCS4076), ligand present: yes
Procedure, shortened: (§1)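 Ribozyme switch library plasmids with mCherry reporters (eGFP in certain ligand experiments) went into HEK293T cells at 4 µg per 6-well well. Where ligand was used, it was applied 1 h before transfection, and total RNA was extracted with EDTA 72 h later for reverse transcription, amplification, barcoding and sequencing. RNA level is the RNA-to-DNA read ratio normalized to a spiked-in non-cleaving sequence or to the leading sequences, then scaled and log-transformed. Scaling was ×100 with log10, the leading set comprised 25 sequences, and the cutoff was ≥100 DNA reads.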

[2] = variants of: B1; experiment: normalized RNA/DNA level without ligand (relative to sTRSVctl = 100) (log10 (% of sTRSVctl)); ligand: hypoxanthine (xanthine aptamer); higher = less ribozyme self-cleavage, higher mRNA level; settings: HEK293T, reporter: mCherry (pCS4076), ligand present: no
Procedure, shortened: as §1

| Variant | normalized RNA/DNA level with ligand (log10) [1] | normalized RNA/DNA level without ligand (log10) [2] |
| --- | --- | --- |
| CUUGUA | 1.94 ± 0.062 | 1.83 ± 0.045 |
| CUUGUU | 1.909 ± 0.0024 | 1.9 ± 0.022 |
| CUUGUG | 1.96 ± 0.056 | 1.883 ± 0.015 |
| UUUGGU | 1.976 ± 0.0094 | 1.8 ± 0.027 |
| UUUGGA | 1.93 ± 0.027 | 1.67 ± 0.026 |
| UUUGGG | 1.92 ± 0.025 | 1.71 ± 0.035 |
| UUUGGC | 1.99 ± 0.059 | 1.92 ± 0.053 |
| CUUUCG | 1.97 ± 0.064 | 1.903 ± 0.014 |
| CUUUCU | 1.93 ± 0.048 | 1.88 ± 0.038 |
| CUUUCC | 1.91 ± 0.05 | 1.96 ± 0.039 |
| UUUUAA | 1.931 ± 0.0049 | 1.85 ± 0.056 |
| UUUUAC | 1.93 ± 0.031 | 1.83 ± 0.031 |
| UUUUAG | 1.9 ± 0.03 | 1.76 ± 0.055 |
| AUUUUA | 1.9 ± 0.029 | 1.83 ± 0.037 |
| AUUUUC | 1.97 ± 0.056 | 1.925 ± 0.003 |
| AUUGUU | 1.9265 ± 0.0005 | 1.8319 ± 0.00072 |
| AUUGUC | 1.952 ± 0.016 | 1.969 ± 0.015 |
| AUUGUA | 1.89 ± 0.021 | 1.78 ± 0.022 |
| CUUUGU | 1.93 ± 0.021 | 1.975 ± 0.013 |

| Variant | normalized RNA/DNA level with ligand (log10) [1] | normalized RNA/DNA level without ligand (log10) [2] |
| --- | --- | --- |
| CUUUGC | 1.92 ± 0.026 | 1.88 ± 0.06 |
| CUUUGA | 1.97 ± 0.035 | 1.88 ± 0.0019 |
| CUUUGG | 1.88 ± 0.032 | 1.58 ± 0.043 |
| GUUUAC | 1.96 ± 0.04 | 1.88 ± 0.028 |
| GUUUAU | 1.96 ± 0.05 | 1.83 ± 0.042 |
| CUUGCC | 1.9562 ± 0.0012 | 1.884 ± 0.015 |
| CUUGCG | 1.937 ± 0.0067 | 1.853 ± 0.004 |
| UUUUUC | 2.02 ± 0.043 | 1.99 ± 0.02 |
| UUUUUG | 1.98 ± 0.025 | 1.83 ± 0.064 |
| UUUUUA | 1.99 ± 0.064 | 1.93 ± 0.045 |
| UUUUUU | 1.973 ± 0.01 | 1.973 ± 0.017 |
| GUUUCU | 2 ± 0.063 | 2.02 ± 0.027 |
| GUUUCA | 1.98 ± 0.024 | 1.9949 ± 0.0014 |
| GUUUCG | 1.9698 ± 0.0015 | 2.01 ± 0.098 |
| UUUUCU | 1.99 ± 0.052 | 1.9 ± 0.02 |
| UUUUCA | 1.94 ± 0.056 | 1.901 ± 0.012 |
| UUUUCG | 1.923 ± 0.0085 | 1.79 ± 0.053 |
| AUUGCU | 1.92 ± 0.048 | 1.88 ± 0.048 |
| AUUGCC | 1.95 ± 0.021 | 1.85 ± 0.021 |
